Tests used:
Assay in all cases: holdup assay
Set-up in all cases: key: below the threshold = too weak to quantify, mostly under pKd 3.1 to 4
Conditions in all cases: plain residues with an end cap or a label only (N-terminal biotin on a linker: ttds)
RHPN1, Q8TCX5 = target: T1, RHPN1, Q8TCX5
T1 sequence (Q8TCX5 508-602, limits assumed, looked up): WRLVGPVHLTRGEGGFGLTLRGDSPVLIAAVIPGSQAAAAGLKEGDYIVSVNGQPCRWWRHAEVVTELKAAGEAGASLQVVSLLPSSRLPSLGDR

Inadl_4, Q8NI35 = target: Inadl_4, Q8NI35
NHERF3_1, Q5T2W1 = target: T2, NHERF3_1, Q5T2W1
T2 sequence (Q5T2W1 4-100, limits assumed, looked up): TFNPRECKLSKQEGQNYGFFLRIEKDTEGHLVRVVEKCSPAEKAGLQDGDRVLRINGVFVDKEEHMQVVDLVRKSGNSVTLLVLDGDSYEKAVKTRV

APBA2_1, Q99767 = target: T3, APBA2_1, Q99767
T3 sequence (Q99767 563-664, limits assumed, looked up): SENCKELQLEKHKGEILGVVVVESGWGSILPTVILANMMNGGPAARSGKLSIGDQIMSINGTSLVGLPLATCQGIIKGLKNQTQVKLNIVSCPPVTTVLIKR

DLG1_1, Q12959 = target: DLG1_1, Q12959
FRMPD2_3, Q68DX3 = target: FRMPD2_3, Q68DX3
DLG4_1, P78352 = target: DLG4_1, P78352
DVL3, Q92997 = target: T4, DVL3, Q92997
T4 sequence (Q92997 244-331, limits assumed, looked up): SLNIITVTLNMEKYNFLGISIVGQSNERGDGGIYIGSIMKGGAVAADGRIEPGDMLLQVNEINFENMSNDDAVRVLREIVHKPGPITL

MAGI1_2, Q96QZ7 = target: MAGI1_2, Q96QZ7
HTRA4, P83105 = target: T5, HTRA4, P83105
T5 sequence (P83105 378-476, limits assumed, looked up): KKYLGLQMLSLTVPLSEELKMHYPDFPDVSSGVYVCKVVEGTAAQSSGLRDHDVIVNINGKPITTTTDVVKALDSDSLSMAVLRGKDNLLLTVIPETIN

SNTG1, Q9NSN8 = target: T6, SNTG1, Q9NSN8
T6 sequence (Q9NSN8 52-150, limits assumed, looked up): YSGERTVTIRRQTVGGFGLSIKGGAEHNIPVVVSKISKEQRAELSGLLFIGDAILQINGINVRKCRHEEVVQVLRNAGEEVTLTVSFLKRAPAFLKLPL

FRMPD4, Q14CM0 = target: FRMPD4, Q14CM0
Inadl_6, Q8NI35 = target: Inadl_6, Q8NI35
ARHGEF11, O15085 = target: T7, ARHGEF11, O15085
T7 sequence (O15085 42-136, limits assumed, looked up): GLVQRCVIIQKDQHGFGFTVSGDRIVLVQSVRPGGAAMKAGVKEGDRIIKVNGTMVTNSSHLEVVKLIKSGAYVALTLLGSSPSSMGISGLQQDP

Inadl_2, Q8NI35 = target: Inadl_2, Q8NI35
Inadl_5, Q8NI35 = target: Inadl_5, Q8NI35
GRIP2_5, Q9C0E4 = target: GRIP2_5, Q9C0E4
MAGI2_4, Q86UL8 = target: MAGI2_4, Q86UL8
MAGI1_1, Q96QZ7 = target: MAGI1_1, Q96QZ7
MAGI2_6, Q86UL8 = target: MAGI2_6, Q86UL8
LNX2_2, Q8N448 = target: T8, LNX2_2, Q8N448
T8 sequence (Q8N448 334-432, limits assumed, looked up): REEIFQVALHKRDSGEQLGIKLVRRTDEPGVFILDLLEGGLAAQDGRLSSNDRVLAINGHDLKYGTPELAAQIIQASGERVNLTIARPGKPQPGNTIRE

TJP2_1, Q9UDY2 = target: TJP2_1, Q9UDY2
PDZRN4_1, Q6ZMN7 = target: PDZRN4_1, Q6ZMN7
GRIP1_3, Q9Y3R0 = target: T9, GRIP1_3, Q9Y3R0
T9 sequence (Q9Y3R0 247-346, limits assumed, looked up): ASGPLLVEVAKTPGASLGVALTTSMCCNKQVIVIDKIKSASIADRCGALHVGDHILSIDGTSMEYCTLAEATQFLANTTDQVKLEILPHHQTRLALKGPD

GRIP1_5, Q9Y3R0 = target: T10, GRIP1_5, Q9Y3R0
T10 sequence (Q9Y3R0 568-668, limits assumed, looked up): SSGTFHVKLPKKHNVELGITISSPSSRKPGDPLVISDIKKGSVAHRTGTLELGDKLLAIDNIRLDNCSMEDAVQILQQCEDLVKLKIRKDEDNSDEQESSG

DLG3_1, Q92796 = target: T11, DLG3_1, Q92796
T11 sequence (Q92796 125-227, limits assumed, looked up): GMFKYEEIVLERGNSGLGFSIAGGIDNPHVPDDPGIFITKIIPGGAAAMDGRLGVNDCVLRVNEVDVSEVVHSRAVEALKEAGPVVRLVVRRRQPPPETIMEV

LDB3, O75112 = target: LDB3, O75112
Sequence of LDB3, O75112 (O75112 1-94): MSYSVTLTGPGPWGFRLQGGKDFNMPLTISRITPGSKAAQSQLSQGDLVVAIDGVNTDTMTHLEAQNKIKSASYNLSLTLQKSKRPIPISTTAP

Sequence of Inadl_4, Q8NI35 (Q8NI35 547-651): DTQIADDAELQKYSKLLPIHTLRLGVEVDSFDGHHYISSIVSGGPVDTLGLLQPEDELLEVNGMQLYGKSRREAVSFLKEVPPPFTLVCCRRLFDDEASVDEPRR
Sequence of GRIP2_5, Q9C0E4 (Q9C0E4 544-642): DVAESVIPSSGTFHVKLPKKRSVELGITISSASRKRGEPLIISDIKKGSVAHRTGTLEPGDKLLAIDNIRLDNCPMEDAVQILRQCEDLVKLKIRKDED
Sequence of Inadl_6, Q8NI35 (Q8NI35 1058-1167): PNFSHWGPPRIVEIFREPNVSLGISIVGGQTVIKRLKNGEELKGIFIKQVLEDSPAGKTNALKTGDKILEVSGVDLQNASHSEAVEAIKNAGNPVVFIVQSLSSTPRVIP
Sequence of MAGI2_4, Q86UL8 (Q86UL8 772-865): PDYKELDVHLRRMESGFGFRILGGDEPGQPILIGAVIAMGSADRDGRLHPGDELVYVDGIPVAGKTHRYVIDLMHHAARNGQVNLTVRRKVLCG
Sequence of Inadl_2, Q8NI35 (Q8NI35 238-335): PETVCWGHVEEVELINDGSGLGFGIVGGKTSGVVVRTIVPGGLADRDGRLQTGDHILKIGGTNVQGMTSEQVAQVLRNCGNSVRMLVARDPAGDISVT
Sequence of Inadl_5, Q8NI35 (Q8NI35 673-780): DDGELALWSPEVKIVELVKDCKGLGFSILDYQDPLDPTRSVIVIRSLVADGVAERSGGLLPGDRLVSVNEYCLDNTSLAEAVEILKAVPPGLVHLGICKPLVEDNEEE
Sequence of MAGI2_6, Q86UL8 (Q86UL8 1141-1229): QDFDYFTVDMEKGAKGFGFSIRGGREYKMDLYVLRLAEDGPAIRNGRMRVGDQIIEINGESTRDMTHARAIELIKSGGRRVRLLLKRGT
Sequence of PDZRN4_1, Q6ZMN7 (Q6ZMN7 213-318): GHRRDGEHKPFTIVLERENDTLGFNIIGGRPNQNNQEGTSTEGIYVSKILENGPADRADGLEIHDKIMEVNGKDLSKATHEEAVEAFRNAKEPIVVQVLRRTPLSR
Sequence of FRMPD2_3, Q68DX3 (Q68DX3 1073-1166): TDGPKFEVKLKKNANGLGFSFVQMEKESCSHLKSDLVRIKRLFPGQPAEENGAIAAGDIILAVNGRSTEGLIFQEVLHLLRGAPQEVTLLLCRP
Sequence of DLG4_1, P78352 (P78352 62-152): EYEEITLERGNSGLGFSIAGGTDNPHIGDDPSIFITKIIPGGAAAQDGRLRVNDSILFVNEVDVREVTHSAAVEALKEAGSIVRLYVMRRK
Sequence of FRMPD4, Q14CM0 (Q14CM0 67-160): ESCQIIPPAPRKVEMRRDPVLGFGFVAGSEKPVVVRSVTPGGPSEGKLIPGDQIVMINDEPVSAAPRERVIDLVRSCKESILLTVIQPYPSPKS
Sequence of MAGI1_1, Q96QZ7 (Q96QZ7 1-106): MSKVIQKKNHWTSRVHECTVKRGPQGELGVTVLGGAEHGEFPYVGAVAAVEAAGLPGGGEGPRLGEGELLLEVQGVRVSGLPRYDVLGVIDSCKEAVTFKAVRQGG
Sequence of TJP2_1, Q9UDY2 (Q9UDY2 24-128): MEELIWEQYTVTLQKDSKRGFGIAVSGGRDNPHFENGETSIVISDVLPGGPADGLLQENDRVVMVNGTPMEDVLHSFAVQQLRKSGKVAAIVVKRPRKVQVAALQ
Sequence of MAGI1_2, Q96QZ7 (Q96QZ7 456-580): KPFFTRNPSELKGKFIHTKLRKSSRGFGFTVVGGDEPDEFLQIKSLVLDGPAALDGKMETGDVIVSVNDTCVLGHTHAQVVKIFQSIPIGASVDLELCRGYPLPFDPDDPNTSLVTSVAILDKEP

B1: HPV18-E6, P06463 (peptide)
chain: RLQRRRETQV
- pKd (RHPN1, Q8TCX5): 3.63
- pKd (Inadl_4, Q8NI35): below the threshold
- pKd (NHERF3_1, Q5T2W1): 4.05
- pKd (APBA2_1, Q99767): below the threshold
- pKd (DLG1_1, Q12959): 5.26
- pKd (FRMPD2_3, Q68DX3): below the threshold
- pKd (DLG4_1, P78352): 5.11
- pKd (DVL3, Q92997): below the threshold
- pKd (MAGI1_2, Q96QZ7): 5.97
- pKd (HTRA4, P83105): below the threshold
- pKd (SNTG1, Q9NSN8): 3.93
- pKd (FRMPD4, Q14CM0): below the threshold
- pKd (Inadl_6, Q8NI35): below the threshold
- pKd (ARHGEF11, O15085): 3.66
- pKd (Inadl_2, Q8NI35): below the threshold
- pKd (Inadl_5, Q8NI35): 3.52
- pKd (GRIP2_5, Q9C0E4): below the threshold
- pKd (MAGI2_4, Q86UL8): 4.28
- pKd (MAGI1_1, Q96QZ7): below the threshold
- pKd (MAGI2_6, Q86UL8): below the threshold
- pKd (LNX2_2, Q8N448): 3.17
- pKd (TJP2_1, Q9UDY2): 3.89
- pKd (PDZRN4_1, Q6ZMN7): 4.48
- pKd (GRIP1_3, Q9Y3R0): below the threshold
- pKd (GRIP1_5, Q9Y3R0): below the threshold
- pKd (DLG3_1, Q92796): 4.34
- pKd (LDB3, O75112): below the threshold

B2: SLC16A3, O15427 (peptide)
chain: EVVHTPETSV
- pKd (RHPN1, Q8TCX5): 4.24
- pKd (Inadl_4, Q8NI35): below the threshold
- pKd (NHERF3_1, Q5T2W1): below the threshold
- pKd (APBA2_1, Q99767): below the threshold
- pKd (DLG1_1, Q12959): 3.87
- pKd (FRMPD2_3, Q68DX3): below the threshold
- pKd (DLG4_1, P78352): 3.9
- pKd (DVL3, Q92997): below the threshold
- pKd (MAGI1_2, Q96QZ7): below the threshold
- pKd (HTRA4, P83105): below the threshold
- pKd (SNTG1, Q9NSN8): 4.71
- pKd (FRMPD4, Q14CM0): below the threshold
- pKd (Inadl_6, Q8NI35): below the threshold
- pKd (ARHGEF11, O15085): 3.76
- pKd (Inadl_2, Q8NI35): below the threshold
- pKd (Inadl_5, Q8NI35): below the threshold
- pKd (GRIP2_5, Q9C0E4): below the threshold
- pKd (MAGI2_4, Q86UL8): 3.55
- pKd (MAGI1_1, Q96QZ7): below the threshold
- pKd (MAGI2_6, Q86UL8): 4.14
- pKd (LNX2_2, Q8N448): below the threshold
- pKd (TJP2_1, Q9UDY2): below the threshold
- pKd (PDZRN4_1, Q6ZMN7): 4.5
- pKd (GRIP1_3, Q9Y3R0): below the threshold
- pKd (GRIP1_5, Q9Y3R0): below the threshold
- pKd (DLG3_1, Q92796): below the threshold
- pKd (LDB3, O75112): below the threshold

Source: PMC9482650, “Quantitative fragmentomics allow affinity mapping of interactomes” (Nature Communications, 2022)
